This data set in a line: Western blot of supernatant and whole cell lysate, A549. As to conditions: glycan lost; control: wild type CTSV.

We go through 3 proteins from PMC9043764.

B1: cathepsin V (CTSV): N221Q (protein)
parent chain: MNLSLVLAAFCLGIASAVPKFDQNLDTKWYQWKATHRRLYGANEEGWRRAVWEKNMKMIELHNGEYSQGKHGFTMAMNAFGDMTNEEFRQMMGCFRNQKFRKGKVFREPLFLDLPKSVDWRKKGYVTPVKNQKQCGSCWAFSATGALEGQMFRKTGKLVSLSEQNLVDCSRPQGNQGCNGGFMARAFQYVKENGGLDSEESYPYVAVDEICKYRPENSVANDTGFTVVAPGKEKALMKAVATVGPISVAMDAGHSSFQFYKSGIYFEPDCSSKNLDHGVLVVGYGFEGANSNNSKYWLVKNSWGPEWGSNGYVKIAKDKNNHCGIATAASYPNV
Consider B1, for which the expression_or_secretion entry is “decreases”.

B2: cathepsin V (CTSV): 2NQ (protein)
parent chain: MNLSLVLAAFCLGIASAVPKFDQNLDTKWYQWKATHRRLYGANEEGWRRAVWEKNMKMIELHNGEYSQGKHGFTMAMNAFGDMTNEEFRQMMGCFRNQKFRKGKVFREPLFLDLPKSVDWRKKGYVTPVKNQKQCGSCWAFSATGALEGQMFRKTGKLVSLSEQNLVDCSRPQGNQGCNGGFMARAFQYVKENGGLDSEESYPYVAVDEICKYRPENSVANDTGFTVVAPGKEKALMKAVATVGPISVAMDAGHSSFQFYKSGIYFEPDCSSKNLDHGVLVVGYGFEGANSNNSKYWLVKNSWGPEWGSNGYVKIAKDKNNHCGIATAASYPNV
In the case of B2, the expression_or_secretion result was “decreases”.

B3: cathepsin V (CTSV): N292Q (protein)
parent chain: MNLSLVLAAFCLGIASAVPKFDQNLDTKWYQWKATHRRLYGANEEGWRRAVWEKNMKMIELHNGEYSQGKHGFTMAMNAFGDMTNEEFRQMMGCFRNQKFRKGKVFREPLFLDLPKSVDWRKKGYVTPVKNQKQCGSCWAFSATGALEGQMFRKTGKLVSLSEQNLVDCSRPQGNQGCNGGFMARAFQYVKENGGLDSEESYPYVAVDEICKYRPENSVANDTGFTVVAPGKEKALMKAVATVGPISVAMDAGHSSFQFYKSGIYFEPDCSSKNLDHGVLVVGYGFEGANSNNSKYWLVKNSWGPEWGSNGYVKIAKDKNNHCGIATAASYPNV
In the case of B3, the expression_or_secretion entry is “decreases”.
